{"source": "paper PMC11257959", "tested_on": "NG-RYBP R47A/R53A/R56A (Homo sapiens)", "assay": "EMSA", "settings": "apparent Kd, n=3; value assigned by fourfold loss; H2A K119 monoubiquitinated histone; DNA unmodified; EMSA: 25 mM Tris-HCl pH 7.5, 50 mM NaCl, 0.05% Tween 20, 5 mM MgCl2, 4% glycerol, 0.2 nM nucleosome, 10 min on ice, 1% agarose 0.4x TBE; cryo-EM binding: 50 mM …"}
{"substance": "NucH2Aub1 (EMSA, 201 bp 601)", "values": [{"measurement": "Kd", "value": 0.01, "unit": "µM"}]}
